From article PMC1654158
One block for each binder: values may come before it.

Tests used:
[1] = target: T1, Signal peptide peptidase (SPP) fluorescent fusion protein (CFP or YFP fused to the NH2- or COOH-terminus of SPP), Q8TCT9; test: FRET or BRET; FLIM (fluorescence lifetime imaging microscopy) in live CHO cells co-transfected with CFP-SPP (donor) and YFP-SPP (acceptor) fusion constructs, 24 hours post-transfection, in Hank's Balanced Salt Solution; donor-only (empty vector) as negative control; conditions: remark: other sources report otherwise
T1 chain: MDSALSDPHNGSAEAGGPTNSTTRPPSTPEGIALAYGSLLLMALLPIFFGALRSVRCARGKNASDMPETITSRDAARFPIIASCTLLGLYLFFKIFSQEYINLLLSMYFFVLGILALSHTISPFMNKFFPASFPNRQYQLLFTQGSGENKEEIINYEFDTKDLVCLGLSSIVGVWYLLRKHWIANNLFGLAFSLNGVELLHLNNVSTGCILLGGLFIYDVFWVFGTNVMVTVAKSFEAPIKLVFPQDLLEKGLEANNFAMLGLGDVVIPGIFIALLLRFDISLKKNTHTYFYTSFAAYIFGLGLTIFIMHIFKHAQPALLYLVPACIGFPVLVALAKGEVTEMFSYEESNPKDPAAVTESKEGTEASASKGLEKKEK

[2] = target: T2, Epitope tagged signal peptide peptidase (SPP): COOH-terminal V5 tagged SPP (SPPCTV5) and NH2-terminal FLAG tagged SPP (…), Q8TCT9; test: FRET or BRET; FLIM in fixed (4% paraformaldehyde), permeabilised HEK cells stably overexpressing SPPCTV5 and …; goat anti-V5 labelled with Alexa 488 (donor), mouse anti-FLAG labelled with Cy3 (acceptor); cells expressing only SPPCTV5 as negative control; conditions: remark: other sources report otherwise
T2 chain: T1 chain

CFP donor lifetime (donor CFP at COOH-terminus of SPP, acceptor YFP at COOH-terminus of SPP; donor only 2267 psec) [1]: 1490 psec
CFP donor lifetime (donor CFP at NH2-terminus of SPP, acceptor YFP at COOH-terminus of SPP; donor only 2267 psec) [1]: 1530 psec
CFP donor lifetime (donor CFP at NH2-terminus of SPP, acceptor YFP at NH2-terminus of SPP; donor only 2267 psec) [1]: 1760 psec
B1: Signal peptide peptidase (SPP) fluorescent fusion protein (CFP or YFP fused to the NH2- or COOH-terminus of SPP), Q8TCT9 1-377 (enzyme)
chain: T1 chain

Alexa 488 donor lifetime (donor Alexa 488 labeled SPPCTV5, acceptor Cy3 labeled …) [2]: 2200 psec
Alexa 488 donor lifetime (donor Alexa 488 labeled SPPCTV5, acceptor Cy3 labeled …; donor only 2504 psec) [2]: 1980 psec
B2: Epitope tagged signal peptide peptidase (SPP): COOH-terminal V5 tagged SPP (SPPCTV5) and NH2-terminal FLAG tagged SPP (…), Q8TCT9 1-377 (enzyme)
chain: T1 chain
